Measured values taken from publication PMC2661844, “HD-PTP Is a Catalytically Inactive Tyrosine Phosphatase Due to a Conserved Divergence in Its Phosphatase Domain” (PLoS ONE, 2009).

B1: Flag-HD-PTP full-length (HD) (Homo sapiens; S1394A) (protein)
chain: MEAVPRMPMIWLDLKEAGDFHFQPAVKKFVLKNYGENPEAYNEELKKLELLRQNAVRVPRDFEGCSVLRKYLGQLHYLQSRVPMGSGQEAAVPVTWTEIFSGKSVAHEDIKYEQACILYNLGALHSMLGAMDKRVSEEGMKVSCTHFQCAAGAFAYLREHFPQAYSVDMSRQILTLNVNLMLGQAQECLLEKSMLDNRKSFLVARISAQVVDYYKEACRALENPDTASLLGRIQKDWKKLVQMKIYYFAAVAHLHMGKQAEEQQKFGERVAYFQSALDKLNEAIKLAKGQPDTVQDALRFTMDVIGGKYNSAKKDNDFIYHEAVPALDTLQPVKGAPLVKPLPVNPTDPAVTGPDIFAKLVPMAAHEASSLYSEEKAKLLREMMAKIEDKNEVLDQFMDSMQLDPETVDNLDAYSHIPPQLMEKCAALSVRPDTVRNLVQSMQVLSGVFTDVEASLKDIRDLLEEDELLEQKFQEAVGQAGAISITSKAELAEVRREWAKYMEVHEKASFTNSELHRAMNLHVGNLRLLSGPLDQVRAALPTPALSPEDKAVLQNLKRILAKVQEMRDQRVSLEQQLRELIQKDDITASLVTTDHSEMKKLFEEQLKKYDQLKVYLEQNLAAQDRVLCALTEANVQYAAVRRVLSDLDQKWNSTLQTLVASYEAYEDLMKKSQEGRDFYADLESKVAALLERTQSTCQAREAARQQLLDRELKKKPPPRPTAPKPLLPRREESEAVEAGDPPEELRSLPPDMVAGPRLPDTFLGSATPLHFPPSPFPSSTGPGPHYLSGPLPPGTYSGPTQLIQPRAPGPHAMPVAPGPALYPAPAYTPELGLVPRSSPQHGVVSSPYVGVGPAPPVAGLPSAPPPQFSGPELAMAVRPATTTVDSIQAPIPSHTAPRPNPTPAPPPPCFPVPPPQPLPTPYTYPAGAKQPIPAQHHFSSGIPAGFPAPRIGPQPQPHPQPHPSQAFGPQPPQQPLPLQHPHLFPPQAPGLLPPQSPYPYAPQPGVLGQPPPPLHTQLYPGPAQDPLPAHSGALPFPSPGPPQPPHPPLAYGPAPSTRPMGPQAAPLTIRGPSSAGQSTPSPHLVPSPAPSPGPGPVPPRPPAAEPPPCLRRGAAAADLLSSSPESQHGGTQSPGGGQPLLQPTKVDAAEGRRPQALRLIERDPYEHPERLRQLQQELEAFRGQLGDVGALDTVWRELQDAQEHDARGRSIAIARCYSLKNRHQDVMPYDSNRVVLRSGKDDYINASCVEGLSPYCPPLVATQAPLPGTAADFWLMVHEQKVSVIVMLVSEAEMEKQKVARYFPTERGQPMVHGALSLALSSVRSTETHVERVLSLQFRDQSLKRSLVHLHFPTWPELGLPDSPSNLLRFIQEVHAHYLHQRPLHTPIIVHCSAGVGRTGAFALLYAAVQEVEAGNGIPELPQLVRRMRQQRKHMLQEKLHLRFCYEAVVRHVEQVLQRHGVPPPCKPLASASISQKNHLPQDSQDLVLGGDVPISSIQATIAKLSIRPPGGLESPVASLPGPAEPPGLPPASLPESTPIPSSSPPPLSSPLPEAPQPKEEPPVPEAPSSGPPSSSLELLASLTPEAFSLDSSLRGKQRMSKHNFLQAHNGQGLRATRPSDDPLSLLDPLWTLNKT
notes: full length, residues 1-1636, 2xFlag tag kept, expressed in HEK 293T, anti-Flag purified
B2: Flag-HD-PTP catalytic domain (CD) (Homo sapiens; S1394A) (protein)
chain: ERLRQLQQELEAFRGQLGDVGALDTVWRELQDAQEHDARGRSIAIARCYSLKNRHQDVMPYDSNRVVLRSGKDDYINASCVEGLSPYCPPLVATQAPLPGTAADFWLMVHEQKVSVIVMLVSEAEMEKQKVARYFPTERGQPMVHGALSLALSSVRSTETHVERVLSLQFRDQSLKRSLVHLHFPTWPELGLPDSPSNLLRFIQEVHAHYLHQRPLHTPIIVHCSAGVGRTGAFALLYAAVQEVEAGNGIPELPQLVRRMRQQRKHMLQEKLHLRFCYEAVVRHVEQVLQRH
notes: PTP catalytic domain, residues 1169-1460, 2xFlag tag kept, expressed in HEK 293T, anti-Flag purified

Assays:
[1] = substrate: Cc1cc(=O)oc2c(F)c(OP(=O)(O)O)c(F)cc12; assay: fluorogenic DiFMUP hydrolysis, Michaelis-Menten fit; format: biochemical, Homo sapiens; settings: 50 mM Hepes, 3 mM DTT, 0.1 mg/ml BSA, pH 6.5, 37 °C, DiFMUP 0-300 µM, wild type inactive
Text: fluorogenic DiFMUP hydrolysis, Michaelis-Menten fit on Flag-HD-PTP full-length (HD)

[2] = substrate: Cc1cc(=O)oc2c(F)c(OP(=O)(O)O)c(F)cc12; assay: as above; format: biochemical, Homo sapiens; settings: 50 mM Hepes, 3 mM DTT, 0.1 mg/ml BSA, pH 6.5, 37 °C, DiFMUP 0-300 µM, wild type inactive; remark: listed apart in the source
Text: fluorogenic DiFMUP hydrolysis, Michaelis-Menten fit on Flag-HD-PTP catalytic domain (CD)

Protein	Km [1]	kcat [1]	kcat/Km [1]	Km [2]	kcat [2]
B1	28 µM	0.2 s⁻¹	6000 M⁻¹ s⁻¹	–	–
B2	–	–	–	18 µM	0.1 s⁻¹
